In patent publication US20220363757A1 (SYMPHOGEN A S, published 2022):

T1: human LAG-3 domain 1-2 Fc fusion, point mutation #73 R137A (human, UniProt P18627 23-266)
T1 construct: not shown: human IgG1 Fc, AA P101-K330
T1 sequence: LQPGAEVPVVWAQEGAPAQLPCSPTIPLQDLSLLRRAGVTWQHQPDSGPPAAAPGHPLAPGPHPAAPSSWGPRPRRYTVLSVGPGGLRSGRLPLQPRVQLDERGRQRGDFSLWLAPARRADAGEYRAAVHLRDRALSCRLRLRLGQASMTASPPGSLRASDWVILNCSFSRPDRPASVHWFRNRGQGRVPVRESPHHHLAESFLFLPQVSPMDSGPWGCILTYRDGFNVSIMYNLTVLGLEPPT

T2: human LAG-3 domain 1-2 Fc fusion, point mutation #62 Q121A (human, UniProt P18627 23-266)
T2 construct: not shown: human IgG1 Fc, AA P101-K330
T2 sequence: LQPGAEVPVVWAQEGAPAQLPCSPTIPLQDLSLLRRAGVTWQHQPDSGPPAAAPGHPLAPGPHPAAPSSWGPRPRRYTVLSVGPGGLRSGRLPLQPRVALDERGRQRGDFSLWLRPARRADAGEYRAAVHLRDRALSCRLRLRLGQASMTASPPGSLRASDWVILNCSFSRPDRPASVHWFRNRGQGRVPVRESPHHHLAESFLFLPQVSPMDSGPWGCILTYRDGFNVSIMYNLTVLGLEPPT

T3: human LAG-3 domain 1-2 Fc fusion, point mutation #53 L109A (human, UniProt P18627 23-266)
T3 construct: not shown: human IgG1 Fc, AA P101-K330
T3 sequence: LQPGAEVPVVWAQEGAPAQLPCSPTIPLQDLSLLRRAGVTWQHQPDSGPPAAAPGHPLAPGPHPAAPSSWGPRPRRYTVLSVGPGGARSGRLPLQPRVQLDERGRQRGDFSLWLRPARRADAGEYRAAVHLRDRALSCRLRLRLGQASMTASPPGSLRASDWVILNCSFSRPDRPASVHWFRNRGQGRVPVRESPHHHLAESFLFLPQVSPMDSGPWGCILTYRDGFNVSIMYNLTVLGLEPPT

T4: human LAG-3 domain 1-2 Fc fusion, point mutation #3 P43A (human, UniProt P18627 23-266)
T4 construct: not shown: human IgG1 Fc, AA P101-K330
T4 sequence: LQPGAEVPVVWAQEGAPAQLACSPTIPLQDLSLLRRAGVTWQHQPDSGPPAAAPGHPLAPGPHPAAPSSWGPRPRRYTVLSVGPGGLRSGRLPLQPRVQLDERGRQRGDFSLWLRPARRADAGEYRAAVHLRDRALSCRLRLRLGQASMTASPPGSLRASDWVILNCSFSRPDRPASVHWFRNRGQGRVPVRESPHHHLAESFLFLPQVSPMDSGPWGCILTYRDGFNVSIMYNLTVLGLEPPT

T5: human LAG-3 domain 1-2 Fc fusion, point mutation #42 R95A (human, UniProt P18627 23-266)
T5 construct: not shown: human IgG1 Fc, AA P101-K330
T5 sequence: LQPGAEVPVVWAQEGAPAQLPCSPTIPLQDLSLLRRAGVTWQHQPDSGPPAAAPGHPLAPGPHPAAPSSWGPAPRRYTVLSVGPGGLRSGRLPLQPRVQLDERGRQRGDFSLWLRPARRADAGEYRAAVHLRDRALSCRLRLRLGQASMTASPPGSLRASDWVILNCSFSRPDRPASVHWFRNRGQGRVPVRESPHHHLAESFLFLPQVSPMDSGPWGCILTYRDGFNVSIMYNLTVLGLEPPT

T6: human LAG-3 domain 1-2 Fc fusion, point mutation #30 G83A (human, UniProt P18627 23-266)
T6 construct: not shown: human IgG1 Fc, AA P101-K330
T6 sequence: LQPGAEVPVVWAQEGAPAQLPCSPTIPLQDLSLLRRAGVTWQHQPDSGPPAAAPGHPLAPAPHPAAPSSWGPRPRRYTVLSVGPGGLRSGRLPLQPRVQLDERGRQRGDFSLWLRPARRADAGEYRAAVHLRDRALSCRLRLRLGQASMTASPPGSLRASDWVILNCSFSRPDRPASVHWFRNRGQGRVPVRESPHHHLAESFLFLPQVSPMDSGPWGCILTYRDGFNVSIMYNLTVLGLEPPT

T7: human LAG-3 domain 1-2 Fc fusion, point mutation #71 D131A (human, UniProt P18627 23-266)
T7 construct: not shown: human IgG1 Fc, AA P101-K330
T7 sequence: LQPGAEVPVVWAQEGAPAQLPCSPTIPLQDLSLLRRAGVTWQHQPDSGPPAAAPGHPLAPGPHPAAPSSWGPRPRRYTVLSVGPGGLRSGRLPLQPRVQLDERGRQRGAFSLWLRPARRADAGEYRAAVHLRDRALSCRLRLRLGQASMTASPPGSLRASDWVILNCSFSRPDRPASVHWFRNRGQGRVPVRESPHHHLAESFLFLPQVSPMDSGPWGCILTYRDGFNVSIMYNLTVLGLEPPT

T8: human LAG-3 domain 1-2 Fc fusion, point mutation #41 P94A (human, UniProt P18627 23-266)
T8 construct: not shown: human IgG1 Fc, AA P101-K330
T8 sequence: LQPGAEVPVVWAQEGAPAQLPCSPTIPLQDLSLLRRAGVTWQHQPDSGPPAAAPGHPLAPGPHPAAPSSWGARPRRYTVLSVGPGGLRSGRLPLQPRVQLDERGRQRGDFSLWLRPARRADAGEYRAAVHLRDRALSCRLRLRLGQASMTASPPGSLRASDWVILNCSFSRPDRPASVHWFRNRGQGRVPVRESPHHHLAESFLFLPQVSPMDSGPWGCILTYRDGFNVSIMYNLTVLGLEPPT

T9: human LAG-3 domain 1-2 Fc fusion, point mutation #12 R57A (human, UniProt P18627 23-266)
T9 construct: not shown: human IgG1 Fc, AA P101-K330
T9 sequence: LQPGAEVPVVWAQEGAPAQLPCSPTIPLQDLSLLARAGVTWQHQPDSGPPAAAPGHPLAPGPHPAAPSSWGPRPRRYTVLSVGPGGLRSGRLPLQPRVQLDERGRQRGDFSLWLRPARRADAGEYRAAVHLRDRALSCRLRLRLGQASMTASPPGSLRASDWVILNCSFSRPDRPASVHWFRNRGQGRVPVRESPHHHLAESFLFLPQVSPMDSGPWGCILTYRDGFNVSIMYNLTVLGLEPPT


Assays:
Experiment in all cases: SPR, Fab over captured mutant LAG-3-Fc;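 also: fc fusion variants captured on anti-human IgG Fc sensor, Fab injected with association then dissociation phases, KD obtained from Langmuir one-to-one fit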
[1] = biological target: T1, human LAG-3 domain 1-2 Fc fusion, point …
Experimental: (§1) The LAG-3 fusion proteins were immobilized onto a G-a-hu-IgG Fc SensEye® (Ssens BV, The Netherlands) for 15 minutes using a Continuous Flow Microspotter (CFM, Wasatch Microfluidics, Salt Lake City, US). After spotting, the SensEye® was positioned in an IBIS MX96 biosensor and captured proteins were evaluated for binding affinity. […] Fab association was performed for 15 minutes and antigen dissociation was performed for 15 minutes. The recorded binding responses were fitted to a simple Langmuir 1:1 binding model with Scrubber 2 software for calculation of the on-rate (kon or ka), off-rate (koff or kd) and affinity (KD) constants.

[2] = biological target: T2, human LAG-3 domain 1-2 Fc fusion, point …
Experimental: as §1

[3] = biological target: T3, human LAG-3 domain 1-2 Fc fusion, point …
Experimental: as §1

[4] = biological target: T4, human LAG-3 domain 1-2 Fc fusion, point …
Experimental: as §1

[5] = biological target: T5, human LAG-3 domain 1-2 Fc fusion, point …
Experimental: as §1

[6] = biological target: T6, human LAG-3 domain 1-2 Fc fusion, point …
Experimental: as §1

[7] = biological target: T7, human LAG-3 domain 1-2 Fc fusion, point …
Experimental: as §1

[8] = biological target: T8, human LAG-3 domain 1-2 Fc fusion, point …
Experimental: as §1

[9] = biological target: T9, human LAG-3 domain 1-2 Fc fusion, point …
Experimental: as §1

Binder | KD mutant/KD wild type [1] [fold] | KD mutant/KD wild type [2] [fold] | KD mutant/KD wild type [3] [fold] | KD mutant/KD wild type [4] [fold] | KD mutant/KD wild type [5] [fold] | KD mutant/KD wild type [6] [fold] | KD mutant/KD wild type [7] [fold] | KD mutant/KD wild type [8] [fold] | KD mutant/KD wild type [9] [fold] | binding result [1] | binding result [4] | binding result [7] | binding result [8]
Fab fragment of antibody 15532 (Fab, V domains shown, not shown: a dimerising Fc or GST, monomeric Fab made by GingisKHAN digestion of the IgG1) VH: QVQLQQWGAGLLRPSETLSLTCAVYGESFSGYYWNWIRQPPGKGLEWIGEINHSGSTNYNPSLKSRVTISVDTSKTQFSLKLSSVTAADTAVYYCARGWDLLDWNDYWNEYWGQGTLVTVSS VL: EIVLTQSPATLSLSPGERATLSCRASQSVSSYLAWYQQKPGQAPRLLIYDASNRATGIPARFSGSGSGTDFTLTISSLEPEDFAVYYCQQRSNWPLTFGGGTKVEIKR | 3.6 | 0.9 | 1.1 | 3.8 | 3.7 | 1.1 | 4.2 | 0.8 | 1.1 | – | – | – | –
Fab fragment of antibody 15572 (Fab, V domains shown, not shown: a dimerising Fc or GST, monomeric Fab made by GingisKHAN digestion of the IgG1) VH: QLQLQESGPGLVKPSETLSLTCTVSGDSISSSSYYWGWIRQPPGKGLEWIGSIFYSGNTYYNPSLKSRVTISVDTSKNQFSLKLSSVTAADTAVYYCAREDDFLTDYYGAFDIWGQGTMVTVSS VL: not shown | – | 0.6 | 1 | – | 0.6 | 0.5 | – | 0.6 | 0.8 | no binding (tested: 300 nM) | no binding (tested: 300 nM) | no binding (tested: 300 nM) | –

Continued, values first:

KD mutant/KD wild type [1] [fold] | KD mutant/KD wild type [2] [fold] | KD mutant/KD wild type [3] [fold] | KD mutant/KD wild type [4] [fold] | KD mutant/KD wild type [5] [fold] | KD mutant/KD wild type [6] [fold] | KD mutant/KD wild type [7] [fold] | KD mutant/KD wild type [8] [fold] | KD mutant/KD wild type [9] [fold] | binding result [1] | binding result [4] | binding result [7] | binding result [8] | Binder
0.6 | 0.9 | 84.2 | 0.6 | 0.7 | 0.7 | 0.6 | 0.7 | 0.7 | – | – | – | – | Fab fragment of antibody 15011 (Fab, V domains shown, not shown: a dimerising Fc or GST, monomeric Fab made by GingisKHAN digestion of the IgG1) VH: EVQLLESGGGLVQPGGSLRLSCAASGFDFRSYAMMWVRQAPGKGLEWVGGINGEVGGSNTYYAPAVKGRATISRDNSKNTLYLQMNSLRAEDTAVYYCVKGAGACGICNDDIDAWGQGTLVTVSS VL: SYELTQDPAVSVALGQTVRITCSGAGSYAGSYYYGWHQQKPGQAPVTVIYDNDKRPSNIPDRFSGSSSGNTASLTITGAQAEDEADYYCGSTNDNDDGGLFGSGTKVTVLG
– | 1 | 1 | – | 1.9 | 0.5 | – | – | 0.6 | no binding (tested: 300 nM) | no binding (tested: 300 nM) | no binding (tested: 300 nM) | no binding (tested: 300 nM) | Fab fragment of antibody 15431 (Fab, V domains shown, not shown: a dimerising Fc or GST, monomeric Fab made by GingisKHAN digestion of the IgG1) VH: QVQLQQSGPGLVKPSQTLSLTCAISGDSVSSNSAAWNWIRQSPSRGLEWLGRTYYRSKWYNDYAVSVKSRITINPDTSKNQFSLQLNSVTPEDTAVYYCARDDDWNDFDYWGQGTLVTVSS VL: EIVLTQSPATLSLSPGERATLSCRASQSVSSYLAWYQQKPGQAPRLLIYDASNRATGIPARFSGSGSGTDFTLTISSLEPEDFAVYYCQQRSNWPLTFGGGTKVEIKR
